Experimental data from patent US20240150473A1 (SURROZEN OPERATING, published 2024).
Positions count from the first letter of the chain named. Values belong to the binder of their own block, whether it stands above or below them.

Experiments:
[1] = target: T1, biotinylated LRP6E3E4 (UniProt O75581 631-1246, limits assumed, biotinylated (site not stated)); test: BLI (Octet Red 96), biotinylated LRP6E3E4 on streptavidin sensor, 1:1 fit; SEC fraction C3
T1 construct: domain: E3E4; also called Lrp6E3E4 domain; Lrp6 receptor
T1 sequence (looked up): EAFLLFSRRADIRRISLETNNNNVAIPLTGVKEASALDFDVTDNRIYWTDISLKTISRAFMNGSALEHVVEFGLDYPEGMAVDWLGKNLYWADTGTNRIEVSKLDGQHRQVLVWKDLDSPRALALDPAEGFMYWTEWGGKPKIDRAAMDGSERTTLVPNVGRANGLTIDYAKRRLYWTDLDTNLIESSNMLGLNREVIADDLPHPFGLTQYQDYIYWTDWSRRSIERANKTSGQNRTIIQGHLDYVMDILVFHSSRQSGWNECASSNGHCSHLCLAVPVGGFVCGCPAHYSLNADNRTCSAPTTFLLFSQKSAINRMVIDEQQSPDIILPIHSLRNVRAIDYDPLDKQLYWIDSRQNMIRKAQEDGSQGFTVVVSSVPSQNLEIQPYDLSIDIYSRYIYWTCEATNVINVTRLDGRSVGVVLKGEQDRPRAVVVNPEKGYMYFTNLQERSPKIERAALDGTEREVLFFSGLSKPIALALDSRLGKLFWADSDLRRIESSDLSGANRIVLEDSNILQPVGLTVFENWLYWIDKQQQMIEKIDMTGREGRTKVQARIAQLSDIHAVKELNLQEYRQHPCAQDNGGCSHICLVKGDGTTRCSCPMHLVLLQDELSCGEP
Protocol: (§1) Proteins were purified using His-Complete resin (Roche, USA) following standard procedures. Expression levels and homogeneity of VHH26 and its humanized variants were analyzed by SDS-PAGE and SEC (size-exclusion chromatography). […] Biotinylated LRP6E3E4 diluted to 50 nM in the running buffer (PBS, 0.05% Tween-20, 0.5% BSA, pH 7.2) were captured to the SA biosensor followed by dipping into wells containing the indicated VHH26 proteins at different concentrations in running buffer or into a well with only running buffer as a reference channel. KD for each binder was calculated by Octet System software, based on fitting to a 1:1 binding model. Kinetics values (Kon, Koff, KD) from each experiment was calculated from seven technical replicates of different concentrations of the molecule tested with Octet Data Analysis 9.0 (PALL ForteBio, Fremont, CA).
(§2) Central fractions of each of these peaks were examined by Octect-BLI for their ability interact with Lrp6. Kinetics parameters such as kon, koff, and KD for interaction between VHH26 constructs and Lrp6E3E4 domain are listed in Table 2.

[2] = target: T1, biotinylated LRP6E3E4; test: BLI (Octet Red 96), biotinylated LRP6E3E4 on streptavidin sensor, 1:1 fit; SEC fraction C1
Protocol: as §1, §2

[3] = target: T1, biotinylated LRP6E3E4; test: BLI (Octet Red 96), biotinylated LRP6E3E4 on streptavidin sensor, 1:1 fit; SEC fraction G3
Protocol: as §1, §2

[4] = target: T1, biotinylated LRP6E3E4; test: BLI (Octet Red 96), biotinylated LRP6E3E4 on streptavidin sensor, 1:1 fit; SEC fraction G1
Protocol: as §1, §2

[5] = target: T1, biotinylated LRP6E3E4; test: BLI (Octet Red 96), biotinylated LRP6E3E4 on streptavidin sensor, 1:1 fit; SEC fraction D3 (first block)
Protocol: as §1, §2

[6] = target: T1, biotinylated LRP6E3E4; test: BLI (Octet Red 96), biotinylated LRP6E3E4 on streptavidin sensor, 1:1 fit; SEC fraction D3 (second block)
Protocol: as §1, §2

[7] = target: LRP5 (human (Huh-7 human liver reporter …, UniProt O75197)); test: cell-based or functional assay
Sequence of LRP5 (human (O75197 32-1615 limits assumed): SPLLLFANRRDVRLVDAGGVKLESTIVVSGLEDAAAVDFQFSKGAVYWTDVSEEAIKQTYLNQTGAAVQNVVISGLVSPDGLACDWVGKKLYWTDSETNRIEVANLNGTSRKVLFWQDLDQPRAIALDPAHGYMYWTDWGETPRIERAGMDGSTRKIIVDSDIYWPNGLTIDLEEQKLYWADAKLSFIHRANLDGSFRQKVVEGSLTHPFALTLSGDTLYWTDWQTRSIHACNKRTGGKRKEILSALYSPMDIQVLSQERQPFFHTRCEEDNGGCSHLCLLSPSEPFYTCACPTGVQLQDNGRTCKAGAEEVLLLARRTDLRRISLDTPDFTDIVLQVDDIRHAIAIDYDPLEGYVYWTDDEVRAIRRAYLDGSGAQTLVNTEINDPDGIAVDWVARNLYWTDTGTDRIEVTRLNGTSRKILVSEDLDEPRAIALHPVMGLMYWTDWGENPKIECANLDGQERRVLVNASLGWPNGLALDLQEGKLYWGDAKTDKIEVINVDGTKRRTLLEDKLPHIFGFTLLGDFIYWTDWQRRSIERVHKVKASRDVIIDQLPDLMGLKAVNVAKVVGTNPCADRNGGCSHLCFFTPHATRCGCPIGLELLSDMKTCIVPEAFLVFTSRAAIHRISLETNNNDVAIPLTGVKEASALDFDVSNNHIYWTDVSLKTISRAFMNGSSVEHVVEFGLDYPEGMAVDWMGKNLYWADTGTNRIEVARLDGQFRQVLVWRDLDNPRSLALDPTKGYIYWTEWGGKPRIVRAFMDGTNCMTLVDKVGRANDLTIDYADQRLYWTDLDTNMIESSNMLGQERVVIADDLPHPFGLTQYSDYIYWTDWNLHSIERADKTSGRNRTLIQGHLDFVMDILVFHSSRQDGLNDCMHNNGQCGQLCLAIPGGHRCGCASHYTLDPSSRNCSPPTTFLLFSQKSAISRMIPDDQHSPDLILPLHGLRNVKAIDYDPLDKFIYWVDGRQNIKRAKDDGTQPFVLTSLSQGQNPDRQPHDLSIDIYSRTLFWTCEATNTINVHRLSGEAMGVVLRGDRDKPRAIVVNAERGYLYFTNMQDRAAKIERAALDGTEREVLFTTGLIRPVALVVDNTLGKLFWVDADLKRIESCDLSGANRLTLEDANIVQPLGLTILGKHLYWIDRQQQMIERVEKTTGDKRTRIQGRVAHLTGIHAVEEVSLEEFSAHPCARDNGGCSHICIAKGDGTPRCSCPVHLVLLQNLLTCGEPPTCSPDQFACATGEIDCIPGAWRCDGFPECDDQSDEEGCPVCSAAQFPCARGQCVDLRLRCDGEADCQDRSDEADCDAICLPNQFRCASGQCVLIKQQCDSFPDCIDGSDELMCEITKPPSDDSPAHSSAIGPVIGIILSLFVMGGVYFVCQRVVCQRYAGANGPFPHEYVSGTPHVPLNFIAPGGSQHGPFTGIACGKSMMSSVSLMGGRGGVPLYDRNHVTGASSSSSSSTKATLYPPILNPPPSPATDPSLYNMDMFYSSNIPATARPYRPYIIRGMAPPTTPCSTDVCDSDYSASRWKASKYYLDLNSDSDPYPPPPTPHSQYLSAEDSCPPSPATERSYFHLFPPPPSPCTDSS

[8] = target: LRP6 (human (Huh-7 human liver reporter …, UniProt O75581)); test: cell-based or functional assay
Sequence of LRP6 (human (O75581 20-1613 limits assumed): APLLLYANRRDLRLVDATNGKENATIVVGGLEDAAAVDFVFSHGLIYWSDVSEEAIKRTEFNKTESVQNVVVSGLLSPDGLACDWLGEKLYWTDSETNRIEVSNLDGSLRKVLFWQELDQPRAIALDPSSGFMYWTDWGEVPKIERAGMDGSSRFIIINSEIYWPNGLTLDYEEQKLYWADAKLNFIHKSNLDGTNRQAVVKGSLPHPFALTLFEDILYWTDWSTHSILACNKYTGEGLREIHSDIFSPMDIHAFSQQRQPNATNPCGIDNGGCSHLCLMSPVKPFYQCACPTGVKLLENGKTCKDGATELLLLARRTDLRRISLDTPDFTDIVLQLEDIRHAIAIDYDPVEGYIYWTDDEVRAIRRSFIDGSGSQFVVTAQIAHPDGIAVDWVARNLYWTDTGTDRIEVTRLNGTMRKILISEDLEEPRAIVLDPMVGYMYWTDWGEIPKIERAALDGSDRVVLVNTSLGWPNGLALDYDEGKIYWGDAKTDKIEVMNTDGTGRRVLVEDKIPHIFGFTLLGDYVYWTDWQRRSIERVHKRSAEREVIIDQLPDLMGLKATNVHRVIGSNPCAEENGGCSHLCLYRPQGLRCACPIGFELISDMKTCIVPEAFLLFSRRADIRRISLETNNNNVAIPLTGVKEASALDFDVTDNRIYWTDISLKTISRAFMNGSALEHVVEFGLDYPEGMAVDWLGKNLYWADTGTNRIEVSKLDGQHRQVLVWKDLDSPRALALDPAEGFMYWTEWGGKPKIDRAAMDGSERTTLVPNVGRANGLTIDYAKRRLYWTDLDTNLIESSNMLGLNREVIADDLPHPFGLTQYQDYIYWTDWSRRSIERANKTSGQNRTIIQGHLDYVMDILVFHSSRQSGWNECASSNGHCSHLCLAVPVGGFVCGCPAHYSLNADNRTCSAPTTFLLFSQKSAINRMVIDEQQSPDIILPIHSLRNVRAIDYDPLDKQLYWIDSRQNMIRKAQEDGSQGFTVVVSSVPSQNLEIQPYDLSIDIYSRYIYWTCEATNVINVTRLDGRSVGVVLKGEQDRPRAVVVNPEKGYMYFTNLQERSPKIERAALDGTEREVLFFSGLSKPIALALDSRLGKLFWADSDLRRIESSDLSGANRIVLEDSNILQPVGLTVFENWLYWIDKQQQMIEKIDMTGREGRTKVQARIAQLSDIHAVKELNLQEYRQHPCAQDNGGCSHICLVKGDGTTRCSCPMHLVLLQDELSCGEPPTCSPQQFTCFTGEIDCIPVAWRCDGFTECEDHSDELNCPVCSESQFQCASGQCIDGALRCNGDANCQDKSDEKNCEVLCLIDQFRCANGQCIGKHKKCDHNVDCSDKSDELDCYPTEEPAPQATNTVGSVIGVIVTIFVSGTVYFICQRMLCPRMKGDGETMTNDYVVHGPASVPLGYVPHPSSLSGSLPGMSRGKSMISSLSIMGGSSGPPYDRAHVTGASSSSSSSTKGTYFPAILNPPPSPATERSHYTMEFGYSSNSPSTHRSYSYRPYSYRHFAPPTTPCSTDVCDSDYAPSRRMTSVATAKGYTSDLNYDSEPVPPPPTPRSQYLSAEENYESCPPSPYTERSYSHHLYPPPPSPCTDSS

[9] = target: T2, Fzd8 CRD (biotinylated) (UniProt Q9H461 28-155, limits assumed, biotinylated (site not stated)); test: BLI (Octet Red 96), biotinylated Fzd8 CRD captured on SA biosensor, R2M13 as analyte at several concentrations, 1:1 fit; the legend paragraph 33 says IgG, the methods paragraph 311 say R2M13 Fab
T2 construct: domain: CRD
T2 sequence (looked up): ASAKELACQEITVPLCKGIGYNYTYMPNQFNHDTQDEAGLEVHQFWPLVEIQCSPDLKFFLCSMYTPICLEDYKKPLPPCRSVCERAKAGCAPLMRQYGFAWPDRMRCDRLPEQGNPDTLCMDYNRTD
Protocol: (§3) Biotinylated CRDs of Fzds diluted to 25 nM in the running buffer (PBS, 0.05% Tween-20, 0.5% BSA, pH 7.2) were captured to the SA biosensor followed by dipping into wells containing the R2M13 Fab protein at different concentrations in running buffer or into a well with only running buffer as a reference channel. KD for each binder was calculated by Octet System software, based on fitting to a 1:1 binding model. Binding specificities of R2M13 IgG to 10 Fzds were also examined by the BLI assay. Biotinylated Fzd CRDs (H. Chen, Lu, Lee, & Li, 2020) diluted to 50 nM in the running buffer were captured to the SA biosensor followed by dipping into wells containing R2M13 IgG at 200 nM in running buffer.

[10] = target: T3, Fzd5 CRD (biotinylated) (UniProt Q13467 27-155, limits assumed, biotinylated (site not stated)); test: BLI (Octet Red 96), biotinylated Fzd5 CRD captured on SA biosensor, R2M13 as analyte at several concentrations, 1:1 fit; the legend paragraph 32 says IgG, the methods paragraph 311 say R2M13 Fab
T3 construct: domain: CRD
T3 sequence (looked up): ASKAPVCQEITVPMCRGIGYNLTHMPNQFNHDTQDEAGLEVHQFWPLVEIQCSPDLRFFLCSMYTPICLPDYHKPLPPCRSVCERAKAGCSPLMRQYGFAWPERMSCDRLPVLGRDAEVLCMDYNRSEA
Protocol: as §3

B1: VHH26-H3 (VHH)
VHH: EVQLVESGGGLVQPGGSLRLSCAGSGRIFAIYDIAWYRQAPGKGREWVAMIRPVVTEIDYADSVKGRFTISRDNSKNTVYLQMNSLRAEDTAVYYCNAKRPWGSRDEYWGQGTTVTVSS
notes: Expressed in Expi293 cells with a C-terminal hexa-histidine tag; two SEC peaks were tested separately
- Kd [1]: 422 nM
- Kd [2]: 3200 nM

B7: VHH26 (parental) (VHH)
VHH: DVQLVESGGGLVQAGGSLRLACAGSGRIFAIYDIAWYRHPPGNQRELVAMIRPVVTEIDYADSVKGRFTISRNNAMKTVYLQMNNLKPEDTAVYYCNAKRPWGSRDEYWGQGTQVTVSS
notes: Expressed in Expi293 cells with a C-terminal hexa-histidine tag; also called VHH26_His; parental VHH26
- Kd [5]: 17 nM
- Kd [6]: 22 nM

B8: VHH03, Parental LALAPG (bispecific antibody)
heavy chain (R2M13 VH-IgG1 LALAPG): EVQLLQSGAEVKKPGSSVKVSCKASGGTFTYRYLHWVRQAPGQGLEWMGGIIPIFGTGNYAQKFQGRVTITADESTSTAYMELSSLRSEDTAVYYCASSMVRVPYYYGMDVWGQGTLVTVSSASTKGPSVFPLAPSSKSTSGGTAALGCLVKDYFPEPVTVSWNSGALTSGVHTFPAVLQSSGLYSLSSVVTVPSSSLGTQTYICNVNHKPSNTKVDKKVEPKSCDKTHTCPPCPAPEAAGGPSVFLFPPKPKDTLMISRTPEVTCVVVDVSHEDPEVKFNWYVDGVEVHNAKTKPREEQYNSTYRVVSVLTVLHQDWLNGKEYKCKVSNKALGAPIEKTISKAKGQPREPQVYTLPPSREEMTKNQVSLTCLVKGFYPSDIAVEWESNGQPENNYKTTPPVLDSDGSFFLYSKLTVDKSRWQQGNVFSCSVMHEALHNHYTQKSLSLSPGK
light chain (VHH03-linker-R2M13 light chain): not shown
- EC50, Super TOPFlash (STF) luciferase reporter in Huh-7 STF cells; row LRP5 / VHH03, column Parental LALAPG EC50 [7]: 0.11 nM

B9: VHH26, Parental LALAPG (bispecific antibody)
heavy chain (R2M13 VH-IgG1 LALAPG): B8 heavy chain (R2M13 VH-IgG1 LALAPG)
light chain (VHH26-linker-R2M13 light chain): not shown
- EC50, Super TOPFlash (STF) luciferase reporter in Huh-7 STF cells; row LRP6 / VHH26, column Parental LALAPG EC50 [8]: 1.1 nM

B11: R2M13-26 humanized LALAPG (R2M13-h26) (bispecific antibody)
heavy: B8 heavy chain (R2M13 VH-IgG1 LALAPG)
light: not shown
- EC50, Super TOPFlash (STF) luciferase reporter in Huh-7 STF cells; row LRP6 / VHH26, column Humanized LALAPG EC50 [8]: 0.63 nM

B12: VHH03, Humanized LALAPG (bispecific antibody)
heavy chain (R2M13 VH-IgG1 LALAPG): B8 heavy chain (R2M13 VH-IgG1 LALAPG)
light chain (humanized VHH03-linker-R2M13 light chain): not shown
- EC50, Super TOPFlash (STF) luciferase reporter in Huh-7 STF cells; row LRP5 / VHH03, column Humanized LALAPG EC50 [7]: 1.8 nM

B14: R2M13 IgG (the Fzd5,8 binder IgG of R2M13-26) (antibody, V domains shown)
VH: EVQLLQSGAEVKKPGSSVKVSCKASGGTFTYRYLHWVRQAPGQGLEWMGGIIPIFGTGNYAQKFQGRVTITADESTSTAYMELSSLRSEDTAVYYCASSMVRVPYYYGMDVWGQGTLVTVSS
VL: not shown
notes: also called R2M13 antibody
- Kd [9]: 98.5 nM
- Kd [10]: 57.5 nM

Other lines, results leading:

- Kd [3]: 486 nM
- Kd [4]: 687 nM
B2: VHH26-H6 (VHH)
VHH: B1 VHH with W47L, N77K
notes: as for B1

- Kd [1]: 109 nM
- Kd [2]: 41 nM
B3: VHH26-H5 (VHH)
VHH: B1 VHH with N77K
notes: as for B1

- Kd [3]: 280 nM
- Kd [4]: 441 nM
B4: VHH26-H2 (VHH)
VHH: B1 VHH with R45L
notes: as for B1

- Kd [3]: 192 nM
- Kd [4]: 662 nM
B5: VHH26-H4 (VHH)
VHH: B1 VHH with W47L
notes: as for B1

- Kd [1]: 281 nM
B6: VHH26-H1 (VHH)
VHH: B1 VHH with V5L, G24A, Y37V, R45L, A49S, V79L, N97A, A98K
notes: as for B1

- EC50, Super TOPFlash (STF) luciferase reporter in Huh-7 STF cells; row LRP5&6 / VHH36, column Parental LALAPG EC50 (nM); one value given for both LRP5 and LRP6 [7]: 0.06 nM
- EC50, Super TOPFlash (STF) luciferase reporter in Huh-7 STF cells; row LRP5&6 / VHH36, column Parental LALAPG EC50 (nM); one value given for both LRP5 and LRP6 [8]: 0.06 nM
B10: VHH36, Parental LALAPG (bispecific antibody, human IgG1, kappa, L234A L235A)
heavy chain (R2M13 VH-IgG1 LALAPG): B8 heavy chain (R2M13 VH-IgG1 LALAPG)
light chain (VHH36-linker-R2M13 light chain): not shown

- EC50, Super TOPFlash (STF) luciferase reporter in Huh-7 STF cells; row LRP5&6 / VHH36, column Humanized LALAPG EC50 (nM); one value given for both LRP5 and LRP6 [7]: 1.2 nM
- EC50, Super TOPFlash (STF) luciferase reporter in Huh-7 STF cells; row LRP5&6 / VHH36, column Humanized LALAPG EC50 (nM); one value given for both LRP5 and LRP6 [8]: 1.2 nM
B13: VHH36, Humanized LALAPG (bispecific antibody, human IgG1, kappa, L234A L235A)
heavy chain (R2M13 VH-IgG1 LALAPG): B8 heavy chain (R2M13 VH-IgG1 LALAPG)
light chain (humanized VHH36-linker-R2M13 light chain): not shown
